Results on 1 substance are retold here after US20240409663A1 (CONCEPT TO MEDICINE BIOTECH, published 2024).

Assay [1] concerns the target T1, human GPC3 on cells (human, UniProt P51654 25-554). Nature of the assay: FACS, GPC3-CHOK1 cells. A general note: In flow cytometry, cells or beads pass a laser one at a time.
For assay [2], the target named is T1, human GPC3 on cells. Briefly: cell-based or functional assay.
The target in assay [3] is T1, human GPC3 on cells. Nature of the assay: FACS, Huh-7 cells.
Assay [4] concerns the target T1, human GPC3 on cells. Nature of the assay: FACS, GPC3-CHOK1 cells. This is another data set of the same source.
For assay [5], the target named is T1, human GPC3 on cells. Nature of the assay: FACS, Huh-7 cells. The source holds these as a separate data set.
The target of assay [6] is T1, human GPC3 on cells. Nature of the assay: FACS, GPC3-CHOK1 cells. This is another data set of the same source.
For assay [7], the target named is T1, human GPC3 on cells. Nature of the assay: FACS, GPC3-CHOK1 cells. The source holds these as a separate data set.
Assay [8] addresses T1, human GPC3 on cells. Briefly: FACS, Hep3B cells.
The target of assay [9] is T1, human GPC3 on cells. Nature of the assay: FACS, GPC3-CHOK1 cells. This is another data set of the same source.
Assay [10] has as its target T1, human GPC3 on cells. Briefly: FACS, HEPG2 cells.
The target in assay [11] is T1, human GPC3 on cells. Briefly: FACS, Huh-7 cells. The source holds these as a separate data set.
The target of assay [12] is T1, human GPC3 on cells. Briefly: FACS on GPC3-CHOK1 cells, Alexa Fluor 647 anti-human IgG, AF647-MFI.
The target in assay [13] is T1, human GPC3 on cells. Nature of the assay: FACS, GPC3-CHOK1 cells. This is another data set of the same source.
In assay [14] the target is T1, human GPC3 on cells. Briefly: FACS, HEPG2 cells. This is another data set of the same source.
Assay [15] addresses T1, human GPC3 on cells. Briefly: FACS, Hep3B cells. This is another data set of the same source.
Assay [16] concerns the target T1, human GPC3 on cells. Nature of the assay: FACS, HEPG2 cells. The source holds these as a separate data set.

In the case of GC33 (Chugai Pharmaceutical) (antibody), the EC50 (as a rule, the concentration giving half of the maximal effect) in the assay with human GPC3 on cells [1] came to 0.784 nM; with human GPC3 on cells [3] it was 0.182 µg/mL; with human GPC3 on cells [4], 0.166 µg/mL; with human GPC3 on cells [5], 0.953 nM; in the assay with human GPC3 on cells [6], 0.122 µg/mL; in the assay with human GPC3 on cells [7] it was 0.956 nM. Further, the EC50 is 0.375 µg/mL with human GPC3 on cells [8]; 0.131 µg/mL with human GPC3 on cells [9]; 0.745 nM with human GPC3 on cells [10]; 0.147 µg/mL with human GPC3 on cells [11]; 0.993 nM with human GPC3 on cells [13]; 0.181 µg/mL in the assay with human GPC3 on cells [14]. The concentration for a half-maximal effect (EC50) in the assay with human GPC3 on cells [15] is 0.341 µg/mL; with human GPC3 on cells [16] it was 1.28 nM. In the assay with human GPC3 on cells [2], the EC50 of ADCC cytotoxicity (primary NK cells, LDH), HEPG2 cells is 0.276 nM. The same substance had an EC50 of ADCC cytotoxicity (primary NK cells, LDH), Huh-7 cells with human GPC3 on cells [2] of 0.172 nM. In the assay with human GPC3 on cells [2], this substance had an EC50 of ADCC signaling (Jurkat-hCD16a-NFAT luciferase reporter), HEPG2 cells of 0.415 nM. In the assay with human GPC3 on cells [2], this substance returned an EC50 of ADCC signaling (Jurkat-hCD16a-NFAT luciferase reporter), Huh-7 cells of 0.29 nM. For the same substance, the concentration giving a half-maximal response (EC50 (read off the curve)) – broadly, the concentration that produces a half-maximal response – in the assay with human GPC3 on cells [12] was 0.1 µg/mL.
